system: Escherichia coli TOP10; assay: shrunken log2 fold change of peptide-encoding DNA abundance (4.5 h post-induction vs induction); higher = less antimicrobial activity (less host growth inhibition); details: time post-induction: 4.5 h; library: site-saturation at positions 5, 18, 19, 20
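Also: peptides expressed intracellularly from a pBAD plasmid library in pooled LB shake-flask culture, induced with 0.3% L-arabinose, DNA abundance read by NGS, three biological replicates, DESeq2 with apeglm shrinkage.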

Sequence | shrunken log2 fold change
RRIRMRPPRLPRPRPRPGYQPRP | -0.0727
RRIRHRPPRLPRPRPRPLSSPRP | 0.0305
RRIRPRPPRLPRPRPRPFTYPRP | -0.0519
RRIRPRPPRLPRPRPRPLQNPRP | -0.179
RRIRHRPPRLPRPRPRPTRQPRP | 0.254
RRIRRRPPRLPRPRPRPCVCPRP | 0.082
RRIRPRPPRLPRPRPRPKGAPRP | 0.21
RRIRVRPPRLPRPRPRPSRKPRP | 0.00977
RRIRPRPPRLPRPRPRPNLFPRP | 0.175
RRIRGRPPRLPRPRPRPHEWPRP | 0.116
RRIRVRPPRLPRPRPRPSTNPRP | -0.146
RRIRFRPPRLPRPRPRPQSEPRP | 0.00741
RRIRVRPPRLPRPRPRPEREPRP | 0.586
RRIRGRPPRLPRPRPRPKFDPRP | 0.867
RRIRTRPPRLPRPRPRPLNYPRP | -0.415
RRIRPRPPRLPRPRPRPEHGPRP | -0.0552
RRIRLRPPRLPRPRPRPAPCPRP | 0.0424
RRIRFRPPRLPRPRPRPNSMPRP | -1.01
RRIRKRPPRLPRPRPRPQCVPRP | 0.117
RRIRLRPPRLPRPRPRPLGKPRP | -0.0194
RRIRDRPPRLPRPRPRPYCCPRP | -0.151
RRIRSRPPRLPRPRPRPAHTPRP | -0.379
RRIRIRPPRLPRPRPRPFAEPRP | -0.221
RRIRGRPPRLPRPRPRPEKCPRP | 0.599
RRIRKRPPRLPRPRPRPGSIPRP | 0.00442

Sequence | shrunken log2 fold change
RRIRGRPPRLPRPRPRPDEEPRP | 1.76
RRIRTRPPRLPRPRPRPVRGPRP | 0.784
RRIRCRPPRLPRPRPRPIFNPRP | -0.542
RRIRLRPPRLPRPRPRPYECPRP | -0.352
RRIRPRPPRLPRPRPRPWFCPRP | 0.138
RRIRFRPPRLPRPRPRPMAQPRP | -0.337
RRIRCRPPRLPRPRPRPAIRPRP | -0.0579
RRIRRRPPRLPRPRPRPYGNPRP | -0.219
RRIRGRPPRLPRPRPRPYRTPRP | -0.108
RRIRWRPPRLPRPRPRPPWRPRP | 0.696
RRIRFRPPRLPRPRPRPCPYPRP | -0.261
RRIRKRPPRLPRPRPRPLTLPRP | 0.0103
RRIRPRPPRLPRPRPRPCEPPRP | -0.00302
RRIRKRPPRLPRPRPRPVSYPRP | -0.227
RRIRIRPPRLPRPRPRPSQWPRP | -1.15
RRIRCRPPRLPRPRPRPATMPRP | -0.0924
RRIRHRPPRLPRPRPRPVAWPRP | 0.252
RRIRPRPPRLPRPRPRPEYDPRP | 0.101
RRIRWRPPRLPRPRPRPCEWPRP | 0.0102
RRIRYRPPRLPRPRPRPKVHPRP | -0.677
RRIRWRPPRLPRPRPRPPLYPRP | 0.188
RRIRSRPPRLPRPRPRPAQSPRP | 0.234
RRIRYRPPRLPRPRPRPTYIPRP | -0.58
RRIRFRPPRLPRPRPRPTGNPRP | -0.245
RRIRGRPPRLPRPRPRPAWTPRP | 0.619

Sequence | shrunken log2 fold change
RRIRCRPPRLPRPRPRPNPMPRP | -0.246
RRIRWRPPRLPRPRPRPQPHPRP | 0.134
RRIRVRPPRLPRPRPRPPQEPRP | 0.177
RRIRGRPPRLPRPRPRPTVPPRP | 0.433
RRIRTRPPRLPRPRPRPAAQPRP | 0.312
RRIRVRPPRLPRPRPRPTEYPRP | 0.0465
RRIRERPPRLPRPRPRPHMTPRP | 0.0464
RRIRLRPPRLPRPRPRPNSMPRP | -0.0473
RRIRDRPPRLPRPRPRPMGSPRP | 0.00408
RRIRYRPPRLPRPRPRPAHMPRP | -0.015
RRIRFRPPRLPRPRPRPDLEPRP | -0.0811
RRIRVRPPRLPRPRPRPRVAPRP | 0.381
RRIRGRPPRLPRPRPRPGLPPRP | 0.747
RRIRRRPPRLPRPRPRPMACPRP | -0.0812
RRIRPRPPRLPRPRPRPCHIPRP | -0.821
RRIRIRPPRLPRPRPRPNEYPRP | -0.182
RRIRERPPRLPRPRPRPEKTPRP | -0.031
RRIRYRPPRLPRPRPRPEYQPRP | -0.00141
RRIRNRPPRLPRPRPRPDPDPRP | 0.0692
RRIRNRPPRLPRPRPRPSREPRP | -0.103
RRIRRRPPRLPRPRPRPTDIPRP | -0.771
RRIRKRPPRLPRPRPRPTSNPRP | 0.161
RRIRPRPPRLPRPRPRPSVKPRP | -0.277
RRIRHRPPRLPRPRPRPVVPPRP | -0.0888
RRIRWRPPRLPRPRPRPCRYPRP | -0.129

Source: the supplement of paper PMC9112550, “Optimization of the antimicrobial peptide Bac7 by deep mutational scanning” (BMC Biology, 2022)
